Experimental data from patent publication US20150276749A1 (KONICA MINOLTA, published 2015).
Each block holds one molecule with its values, some of them ahead of it.

Key:
[1] = biological target: soluble-type human DSG3-mouse IgG2aFc fusion protein (human; mouse) (UniProt P32926); test: sandwich ELISA, antigen in PBS(-); immobilized MAB1720, detection biotinylated DF151
[2] = biological target: soluble-type human DSG3-mouse IgG2aFc fusion protein (human; mouse) (UniProt P32926); test: sandwich ELISA, antigen in PBS(-); immobilized MAB1720, detection biotinylated D219-3
[3] = biological target: soluble-type human DSG3-mouse IgG2aFc fusion protein (human; mouse) (UniProt P32926); test: sandwich ELISA, antigen in PBS(-); immobilized MAB1720, detection biotinylated DF366m
[4] = biological target: soluble-type human DSG3-mouse IgG2aFc fusion protein (human; mouse) (UniProt P32926); test: sandwich ELISA, antigen in PBS(-); immobilized MAB1720, detection biotinylated MAB1720
[5] = biological target: soluble-type human DSG3-mouse IgG2aFc fusion protein (human; mouse) (UniProt P32926); test: SPFS sandwich; immobilized MAB1720, detection DF151; antigen 1,000 pg/mL (µg/mL in the source)
[6] = biological target: soluble-type human DSG3-mouse IgG2aFc fusion protein (human; mouse) (UniProt P32926); test: sandwich ELISA, luminescence over blank; immobilized MAB1720, detection DF151; antigen 1 pg/mL
[7] = biological target: soluble-type human DSG3-mouse IgG2aFc fusion protein (human; mouse) (UniProt P32926); test: sandwich ELISA, luminescence over blank; immobilized MAB1720, detection DF151; antigen 10 pg/mL
[8] = biological target: soluble-type human DSG3-mouse IgG2aFc fusion protein (human; mouse) (UniProt P32926); test: sandwich ELISA, luminescence over blank; immobilized MAB1720, detection DF151; antigen 40 pg/mL
[9] = biological target: soluble-type human DSG3-mouse IgG2aFc fusion protein (human; mouse) (UniProt P32926); test: sandwich ELISA, antigen added to human serum; immobilized MAB1720, detection biotinylated DF151
[10] = biological target: soluble-type human DSG3-mouse IgG2aFc fusion protein (human; mouse) (UniProt P32926); test: sandwich ELISA, luminescence over blank; immobilized MAB1720, detection DF151; antigen 200 pg/mL
[11] = biological target: soluble-type human DSG3-mouse IgG2aFc fusion protein (human; mouse) (UniProt P32926); test: sandwich ELISA, luminescence over blank; immobilized MAB1720, detection DF151; antigen 1000 pg/mL
[12] = biological target: soluble-type human DSG3-mouse IgG2aFc fusion protein (human; mouse) (UniProt P32926); test: sandwich ELISA, luminescence over blank; immobilized MAB1720, detection DF151; antigen 5000 pg/mL
[13] = biological target: soluble-type human DSG3-mouse IgG2aFc fusion protein (human; mouse) (UniProt P32926); test: sandwich ELISA, luminescence over blank; immobilized MAB1720, detection DF151; antigen 25000 pg/mL
[14] = biological target: T1, soluble-type human DSG3-mouse IgG2aFc fusion protein (human; mouse, UniProt P32926 50-616); test: SPFS sandwich; immobilized DF366m, detection DF151; antigen 1,000 pg/mL (µg/mL in the source)
T1 construct: also called human desmoglein 3; desmoglein 3 standard; not shown: mouse IgG2a Fc, printed 'mouse IgG2aFc' and 'mouse IgG2 constant region'
T1 sequence: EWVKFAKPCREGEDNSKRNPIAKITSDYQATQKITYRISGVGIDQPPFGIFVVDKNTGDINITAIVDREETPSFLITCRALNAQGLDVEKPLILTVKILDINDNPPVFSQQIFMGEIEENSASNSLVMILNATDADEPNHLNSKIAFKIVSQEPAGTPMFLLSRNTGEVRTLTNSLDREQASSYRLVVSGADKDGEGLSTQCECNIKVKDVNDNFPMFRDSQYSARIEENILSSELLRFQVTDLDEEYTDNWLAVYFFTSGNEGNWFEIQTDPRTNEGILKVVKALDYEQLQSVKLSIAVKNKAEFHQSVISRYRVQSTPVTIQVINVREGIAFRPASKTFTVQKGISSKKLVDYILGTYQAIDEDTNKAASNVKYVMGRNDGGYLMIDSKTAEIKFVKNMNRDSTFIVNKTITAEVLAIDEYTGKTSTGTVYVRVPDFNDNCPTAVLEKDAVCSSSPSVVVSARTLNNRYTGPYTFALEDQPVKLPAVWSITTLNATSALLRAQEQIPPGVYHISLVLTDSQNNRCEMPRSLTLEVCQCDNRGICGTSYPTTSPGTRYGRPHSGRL
Experimental: (§1) Once again, a Tris-buffered saline (TBS) containing 0.05% by mass of Tween 20 was fed and circulated in the flow path for 10 minutes to wash the flow path. Then, with the flow path being filled with PBS buffer (pH 7.4), the assay area was irradiated with laser light (640 nm, 40 μW) from the back side of the metal thin films, and the fluorescence intensity was measured using a photomultiplier tube (PMT) arranged above the assay area. The thus measured value was defined as “signal” (S) at a desmoglein 3 concentration of 100 μg/mL.
On another front, the fluorescence intensity was also measured by the same procedures as described above, except that a PBS solution containing no desmoglein 3 (0 μg/mL) was fed in place of the PBS solution containing 100 μg/mL of desmoglein 3. The thus measured value was defined as “noise” (N).
(§2) Further, the fluorescence intensity was measured by the same procedures as described above, except that the desmoglein 3 concentration of the fed PBS solution was changed to 10,000 μg/mL, 5,000 μg/mL, 1,000 μg/mL, 200 μg/mL, 50 μg/mL, 10 μg/mL, 3.16 μg/mL, 1 μg/mL, 0.316 μg/mL, 0.1 μg/mL and 0.031 μg/mL. The thus measured values were each defined as “signal” (S) at the respective concentrations.

[15] = biological target: T1, soluble-type human DSG3-mouse IgG2aFc …; test: sandwich ELISA, luminescence over blank; immobilized DF366m, detection DF151; antigen 1 pg/mL
Experimental: (§3) Subsequently, the antigen solutions having the above-described concentrations were each added to the plate in an amount of 50 μL/well, and the plate was incubated at room temperature for 1 hour. Then, the antigen solution was removed, and the plate was washed with 0.05% Tween 20-PBS three times. Thereafter, the 1-μg/mL biotinylated antibody solution was added in an amount of 50 μL/well, and the plate was incubated at room temperature for 1 hour.
(§4) Then, after removing the streptavidin-HRP solution and washing the plate with 0.05% Tween 20-PBS three times, a substrate solution (SuperSignal ELISA Femto Maximum Sensitivity Substrate (registered trademark); Pierce Biotechnology, Inc.) was added in an amount of 100 μL/well. One minute thereafter, the luminescence intensity was measured using a luminometer, Fluoroskan Ascent FL (trade name, Thermo Electron Corporation).
(§5) The numerical values shown in Table 1 represent the minimum values of the antigen solution concentration having an S/N ratio of higher than 2 (hereinafter, referred to as “detection limit concentration”) and the unit of the numerical values is pg/mL. […]

[16] = biological target: T1, soluble-type human DSG3-mouse IgG2aFc …; test: sandwich ELISA, luminescence over blank; immobilized DF366m, detection DF151; antigen 10 pg/mL
Experimental: as §3, §4, §5

[17] = biological target: T1, soluble-type human DSG3-mouse IgG2aFc …; test: sandwich ELISA, luminescence over blank; immobilized DF366m, detection DF151; antigen 40 pg/mL
Experimental: as §3, §4
(§6) The numerical values shown in Table 1 represent the minimum values of the antigen solution concentration having an S/N ratio of higher than 2 (hereinafter, referred to as “detection limit concentration”) and the unit of the numerical values is pg/mL. The S/N ratio was determined by dividing the luminescence intensity at the respective antigen solution concentrations ([…]) by the luminescence intensity of an antigen-free blank antigen solution (0 μg/mL).

[18] = biological target: T1, soluble-type human DSG3-mouse IgG2aFc …; test: sandwich ELISA, luminescence over blank; immobilized DF366m, detection DF151; antigen 200 pg/mL
Experimental: as §3, §4, §6

[19] = biological target: T1, soluble-type human DSG3-mouse IgG2aFc …; test: sandwich ELISA, luminescence over blank; immobilized DF366m, detection MAB1720; antigen 1 pg/mL
Experimental: as §3, §4, §6

[20] = biological target: T1, soluble-type human DSG3-mouse IgG2aFc …; test: sandwich ELISA, luminescence over blank; immobilized DF366m, detection DF151; antigen 1000 pg/mL
Experimental: as §3, §4, §6

[21] = biological target: T1, soluble-type human DSG3-mouse IgG2aFc …; test: sandwich ELISA, luminescence over blank; immobilized DF366m, detection DF151; antigen 5000 pg/mL
Experimental: as §3, §4, §6

[22] = biological target: T1, soluble-type human DSG3-mouse IgG2aFc …; test: sandwich ELISA, luminescence over blank; immobilized DF366m, detection MAB1720; antigen 10 pg/mL
Experimental: as §3, §4, §5

[23] = biological target: T1, soluble-type human DSG3-mouse IgG2aFc …; test: sandwich ELISA, luminescence over blank; immobilized DF366m, detection MAB1720; antigen 40 pg/mL
Experimental: as §3, §4, §6

[24] = biological target: T1, soluble-type human DSG3-mouse IgG2aFc …; test: SPFS sandwich; immobilized DF366 (so in the source), detection MAB1720; antigen 1,000 pg/mL (µg/mL in the source)
Experimental: as §1, §2
In addition, when the antibody combination was variously changed in the same manner as in Example 1, it was confirmed that plots similar to the one shown in FIG. 6 can be obtained.

[25] = biological target: T1, soluble-type human DSG3-mouse IgG2aFc …; test: sandwich ELISA, luminescence over blank; immobilized DF366m, detection DF151; antigen 25000 pg/mL
Experimental: as §3, §4, §6

[26] = biological target: T1, soluble-type human DSG3-mouse IgG2aFc …; test: sandwich ELISA, luminescence over blank; immobilized DF366m, detection MAB1720; antigen 200 pg/mL
Experimental: as §3, §4, §6

[27] = biological target: T1, soluble-type human DSG3-mouse IgG2aFc …; test: sandwich ELISA, luminescence over blank; immobilized DF366m, detection MAB1720; antigen 1000 pg/mL
Experimental: as §3, §4, §6

[28] = biological target: T1, soluble-type human DSG3-mouse IgG2aFc …; test: sandwich ELISA, luminescence over blank; immobilized DF366m, detection MAB1720; antigen 5000 pg/mL
Experimental: as §3, §4, §6

[29] = biological target: T1, soluble-type human DSG3-mouse IgG2aFc …; test: sandwich ELISA, luminescence over blank; immobilized DF366m, detection MAB1720; antigen 25000 pg/mL
Experimental: as §3, §4, §6

detection limit concentration (lowest antigen concentration with S/N > 2) [1]: 1000 pg/mL | detection limit concentration (lowest antigen concentration with S/N > 2) [2]: 5000 pg/mL | detection limit concentration (lowest antigen concentration with S/N > 2) [3]: 5000 pg/mL | detection limit concentration (lowest antigen concentration with S/N > 2) [4]: 5000 pg/mL | S/N ratio [5]: 34.5 | S/N ratio [6]: 0.9 | S/N ratio [7]: 1.1 | S/N ratio [8]: 1 | detection limit concentration [9]: 1000 pg/mL | S/N ratio [10]: 1.3 | S/N ratio [11]: 2.8 | S/N ratio [12]: 11.4 | S/N ratio [13]: 53
Molecule: MAB1720 antibody (R&D Systems, Inc., Catalog No.: MAB1720)

S/N ratio [14]: 140 | S/N ratio [15]: 1 | S/N ratio [16]: 1.1 | S/N ratio [17]: 1.2 | S/N ratio [18]: 2.3 | S/N ratio [19]: 0.9 | S/N ratio [20]: 8.1 | S/N ratio [21]: 37.3 | S/N ratio [22]: 1 | S/N ratio [23]: 0.9 | S/N ratio [24]: 92.2 | S/N ratio [25]: 186 | S/N ratio [26]: 1.8 | S/N ratio [27]: 3.9 | S/N ratio [28]: 16.6 | S/N ratio [29]: 80.4
B1: DF366m (DF366m[I] antibody) (antibody, mouse IgG2a, kappa, V domains shown)
VH: EVQLQQSGPELVKPGASVKISCKASGYTFTDYNMDWVKQSHGESLEWIGYIYPNNGGSGYNQKFKSKATLTVDKSSSTAYMELHSLTSEDSAVYYCARRDSYYGFDMAWFAYWGQGTLVTVSA
VL: DIQMTQSPASLSASVGETVTITCRPSENIYNNLAWYQQKQGKSPQLLVYVATNLAEGVPSRFSGSGSGTRFSLKINSLQPEDFGKYYCQHSYGTPWTFGGGTKLEIKR
notes: Complete antibody; Plain when immobilized; biotinylated (Biotin-AC5-Osu) when used as detection antibody; also called DF366m antibody
